Substitutions are numbered along the chain they refer to.
B1: H0610-G1dh/none-Hi-Kn010G3/L0063-k0 (antibody, V domains shown)
VH: QVQLVQSGAEVKKPGASVKVSCKASGYTFTDYEMHWIRQPPGQGLEWIGAIDGKTPDTAYSQKFKGRVTLTADKSTSTAYMELSSLTSEDTAVYYCTRFYSYTYWGQGTLVTVSS
VL: DIVMTQSPLSLPVTPGEPASISCRSSQSLVHSNRETYLHWYQQKPGQAPRLLIYKVSNRFSGVPDRFSGSGSGTDFTLKISRVEAEDVGVYYCGQGTQVPYTFGQGTKLEIK
notes: one-arm
B2: H0610-G1dh/none-Hi-Kn010G3/L0160-k0 (antibody, V domains shown)
VH: B1 VH
VL: B1 VL with E35N, G94T
notes: one-arm
B3: H0610-G1dh/none-Hi-Kn010G3/L0132-k0 (antibody, V domains shown)
VH: B1 VH
VL: B1 VL with E35N, F60V
notes: one-arm
B4: H0610-G1dh/none-Hi-Kn010G3/L0136-k0 (antibody, V domains shown)
VH: B1 VH
VL: B1 VL with E35N, S61F
notes: one-arm
B5: H0610-G1dh/none-Hi-Kn010G3/L0147-k0 (antibody, V domains shown)
VH: B1 VH
VL: B1 VL with E35N, S61V
notes: one-arm
B6: H0610-G1dh/none-Hi-Kn010G3/L0107-k0 (antibody, V domains shown)
VH: B1 VH
VL: B1 VL with E35N, N58I
notes: one-arm
B7: H0610-G1dh/none-Hi-Kn010G3/L0104-k0 (antibody, V domains shown)
VH: B1 VH
VL: B1 VL with E35N, N58F
notes: one-arm
B8: H0610-G1dh/none-Hi-Kn010G3/L0069-k0 (antibody, V domains shown)
VH: B1 VH
VL: B1 VL with E35M
notes: one-arm
B9: H0610-G1dh/none-Hi-Kn010G3/L0145-k0 (antibody, V domains shown)
VH: B1 VH
VL: B1 VL with E35N, S61R
notes: one-arm
B10: H0610-G1dh/none-Hi-Kn010G3/L0134-k0 (antibody, V domains shown)
VH: B1 VH
VL: B1 VL with E35N, F60Y
notes: one-arm
B11: H0610-G1dh/none-Hi-Kn010G3/L0138-k0 (antibody, V domains shown)
VH: B1 VH
VL: B1 VL with E35N, S61H
notes: one-arm
B12: H0610-G1dh/none-Hi-Kn010G3/L0137-k0 (antibody, V domains shown)
VH: B1 VH
VL: B1 VL with E35N, S61G
notes: one-arm
B13: H0610-G1dh/none-Hi-Kn010G3/L0085-k0 (antibody, V domains shown)
VH: B1 VH
VL: B1 VL with E35N, H39E
notes: one-arm
B14: H0610-G1dh/none-Hi-Kn010G3/L0126-k0 (antibody, V domains shown)
VH: B1 VH
VL: B1 VL with E35N, F60N
notes: one-arm
B15: H0610-G1dh/none-Hi-Kn010G3/L0079-k0 (antibody, V domains shown)
VH: B1 VH
VL: B1 VL with E35N, L38I
notes: one-arm
B16: H0610-G1dh/none-Hi-Kn010G3/L0106-k0 (antibody, V domains shown)
VH: B1 VH
VL: B1 VL with E35N, N58H
notes: one-arm
B17: H0610-G1dh/none-Hi-Kn010G3/L0157-k0 (antibody, V domains shown)
VH: B1 VH
VL: B1 VL with E35N, G94N
notes: one-arm
B18: H0610-G1dh/none-Hi-Kn010G3/L0143-k0 (antibody, V domains shown)
VH: B1 VH
VL: B1 VL with E35N, S61P
notes: one-arm
B19: H0610-G1dh/none-Hi-Kn010G3/L0151-k0 (antibody, V domains shown)
VH: B1 VH
VL: B1 VL with E35N, G94E
notes: one-arm
B20: H0610-G1dh/none-Hi-Kn010G3/L0113-k0 (antibody, V domains shown)
VH: B1 VH
VL: B1 VL with E35N, N58T
notes: one-arm
B21: H0610-G1dh/none-Hi-Kn010G3/L0140-k0 (antibody, V domains shown)
VH: B1 VH
VL: B1 VL with E35N, S61L
notes: one-arm
B22: H0610-G1dh/none-Hi-Kn010G3/L0075-k0 (antibody, V domains shown)
VH: B1 VH
VL: B1 VL with E35W
notes: one-arm
B23: H0610-G1dh/none-Hi-Kn010G3/L0065-k0 (antibody, V domains shown)
VH: B1 VH
VL: B1 VL with E35G
notes: one-arm
B24: H0610-G1dh/none-Hi-Kn010G3/L0149-k0 (antibody, V domains shown)
VH: B1 VH
VL: B1 VL with E35N, G94A
notes: one-arm
B25: H0610-G1dh/none-Hi-Kn010G3/L0089-k0 (antibody, V domains shown)
VH: B1 VH
VL: B1 VL with E35N, H39L
notes: one-arm
B26: H0610-G1dh/none-Hi-Kn010G3/L0148-k0 (antibody, V domains shown)
VH: B1 VH
VL: B1 VL with E35N, S61W
notes: one-arm
B27: H0610-G1dh/none-Hi-Kn010G3/L0122-k0 (antibody, V domains shown)
VH: B1 VH
VL: B1 VL with E35N, F60I
notes: one-arm
B28: H0610-G1dh/none-Hi-Kn010G3/L0141-k0 (antibody, V domains shown)
VH: B1 VH
VL: B1 VL with E35N, S61M
notes: one-arm
B29: H0610-G1dh/none-Hi-Kn010G3/L0129-k0 (antibody, V domains shown)
VH: B1 VH
VL: B1 VL with E35N, F60R
notes: one-arm
B30: H0610-G1dh/none-Hi-Kn010G3/L0117-k0 (antibody, V domains shown)
VH: B1 VH
VL: B1 VL with E35N, F60A
notes: one-arm
B31: H0610-G1dh/none-Hi-Kn010G3/L0082-k0 (antibody, V domains shown)
VH: B1 VH
VL: B1 VL with E35N, L38V
notes: one-arm
B32: H0610-G1dh/none-Hi-Kn010G3/L0123-k0 (antibody, V domains shown)
VH: B1 VH
VL: B1 VL with E35N, F60K
notes: one-arm
B33: H0610-G1dh/none-Hi-Kn010G3/L0090-k0 (antibody, V domains shown)
VH: B1 VH
VL: B1 VL with E35N, H39M
notes: one-arm
B34: H0610-G1dh/none-Hi-Kn010G3/L0139-k0 (antibody, V domains shown)
VH: B1 VH
VL: B1 VL with E35N, S61I
notes: one-arm
B35: H0610-G1dh/none-Hi-Kn010G3/L0066-k0 (antibody, V domains shown)
VH: B1 VH
VL: B1 VL with E35H
notes: one-arm
B36: H0610-G1dh/none-Hi-Kn010G3/L0120-k0 (antibody, V domains shown)
VH: B1 VH
VL: B1 VL with E35N, F60G
notes: one-arm
B37: H0610-G1dh/none-Hi-Kn010G3/L0109-k0 (antibody, V domains shown)
VH: B1 VH
VL: B1 VL with E35N, N58M
notes: one-arm
B38: H0610-G1dh/none-Hi-Kn010G3/L0115-k0 (antibody, V domains shown)
VH: B1 VH
VL: B1 VL with E35N, N58W
notes: one-arm
B39: H0610-G1dh/none-Hi-Kn010G3/L0124-k0 (antibody, V domains shown)
VH: B1 VH
VL: B1 VL with E35N, F60L
notes: one-arm
B40: H0610-G1dh/none-Hi-Kn010G3/L0127-k0 (antibody, V domains shown)
VH: B1 VH
VL: B1 VL with E35N, F60P
notes: one-arm
B41: H0610-G1dh/none-Hi-Kn010G3/L0064-k0 (antibody, V domains shown)
VH: B1 VH
VL: B1 VL with E35F
notes: one-arm
B42: H0610-G1dh/none-Hi-Kn010G3/L0161-k0 (antibody, V domains shown)
VH: B1 VH
VL: B1 VL with E35N, G94V
notes: one-arm
B43: H0610-G1dh/none-Hi-Kn010G3/L0152-k0 (antibody, V domains shown)
VH: B1 VH
VL: B1 VL with E35N, G94F
notes: one-arm
B44: H0610-G1dh/none-Hi-Kn010G3/L0125-k0 (antibody, V domains shown)
VH: B1 VH
VL: B1 VL with E35N, F60M
notes: one-arm
B45: H0610-G1dh/none-Hi-Kn010G3/L0154-k0 (antibody, V domains shown)
VH: B1 VH
VL: B1 VL with E35N, G94I
notes: one-arm
B46: H0610-G1dh/none-Hi-Kn010G3/L0091-k0 (antibody, V domains shown)
VH: B1 VH
VL: B1 VL with E35N, H39N
notes: one-arm
B47: H0610-G1dh/none-Hi-Kn010G3/L0155-k0 (antibody, V domains shown)
VH: B1 VH
VL: B1 VL with E35N, G94L
notes: one-arm
B48: H0610-G1dh/none-Hi-Kn010G3/L0093-k0 (antibody, V domains shown)
VH: B1 VH
VL: B1 VL with E35N, H39Q
notes: one-arm
B49: H0610-G1dh/none-Hi-Kn010G3/L0144-k0 (antibody, V domains shown)
VH: B1 VH
VL: B1 VL with E35N, S61Q
notes: one-arm

The binders below were run against T1, human GPC3 (human, UniProt P51654 25-563) (assay: SPR).
T1 construct: range 25-563; soluble analyte; also called soluble human GPC3; glypican 3
T1 sequence (P51654 25-563 limits assumed): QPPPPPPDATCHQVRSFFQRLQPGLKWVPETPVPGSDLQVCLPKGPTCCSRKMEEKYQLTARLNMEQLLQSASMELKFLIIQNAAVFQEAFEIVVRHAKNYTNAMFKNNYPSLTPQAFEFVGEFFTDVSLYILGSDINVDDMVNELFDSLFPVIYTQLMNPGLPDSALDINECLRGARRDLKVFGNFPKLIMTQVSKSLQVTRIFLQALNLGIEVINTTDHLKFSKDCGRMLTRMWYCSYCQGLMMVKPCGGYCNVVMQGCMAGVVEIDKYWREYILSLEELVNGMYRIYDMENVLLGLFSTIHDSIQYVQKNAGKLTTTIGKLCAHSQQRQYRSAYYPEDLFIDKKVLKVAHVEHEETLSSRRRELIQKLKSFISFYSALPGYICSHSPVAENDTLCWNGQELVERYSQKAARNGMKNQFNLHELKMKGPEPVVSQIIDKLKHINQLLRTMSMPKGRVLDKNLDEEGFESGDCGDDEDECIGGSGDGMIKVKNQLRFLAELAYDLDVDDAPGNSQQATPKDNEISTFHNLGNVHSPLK

Row | Binder | Kd [nM]
1 | B1 | 6.03
2 | B2 | 2.12
3 | B3 | 5.65
4 | B4 | 5.04
5 | B5 | 4.38
6 | B6 | 4.38
7 | B7 | 5.9
8 | B8 | 5.32
9 | B9 | 2.66
10 | B10 | 2.53
11 | B11 | 5.24
12 | B12 | 5.87
13 | B13 | 1.17
14 | B14 | 5.62
15 | B15 | 4.23
16 | B16 | 5.66
17 | B17 | 2.6
18 | B18 | 0.573
19 | B19 | 1.25
20 | B20 | 4.82
21 | B21 | 3.38
22 | B22 | 2.85
23 | B23 | 4.79
24 | B24 | 2.16
25 | B25 | 5.24

Row | Binder | Kd [nM]
26 | B26 | 3.28
27 | B27 | 2.42
28 | B28 | 3.86
29 | B29 | 5.28
30 | B30 | 4.92
31 | B31 | 3.43
32 | B32 | 5.08
33 | B33 | 1.12
34 | B34 | 4.78
35 | B35 | 4.2
36 | B36 | 4.54
37 | B37 | 5.7
38 | B38 | 4.34
39 | B39 | 0.972
40 | B40 | 3.12
41 | B41 | 3.37
42 | B42 | 0.973
43 | B43 | 2.36
44 | B44 | 1.71
45 | B45 | 1.01
46 | B46 | 5.43
47 | B47 | 1.28
48 | B48 | 0.106
49 | B49 | 4.84
